Results taken from publication PMC7595626.
pKd: −log10 of the molar value.

Molecular target: His6-tagged Casp8p41 protein
Test: SPR; Casp8p41 immobilised on a CM5 chip (6000-7000 RU); BCL2 or phospho-S70-BCL2 flowed over; 25°C; 150 mM NaCl, 0.05 mM EDTA, 0.005% Polysorbate 20, 10 mM Hepes pH 7.4; steady state affinity fit, 1:1 model; Biacore T200

Substance	pKd
phospho-S70-BCL2 (domain or fragment)	7.40
BCL2ΔTM-His6 (domain or fragment)	6.59
